A word on the Kd: it is a measure of binding affinity in units of concentration. Low values mean tighter binding, high ones weaker binding. A word on the EC50 (read off the curve): it is the concentration needed to bring the measured effect to its halfway point. Lower therefore signals greater potency.

For assay [1], the target named is human CD47 on the surface of cancer cells (Raji, Jurkat, DLD-1) (human) (UniProt Q08722). Put plainly: flow cytometry on Jurkat cells, competition with Alexa Fluor 647 wild-type SIRPα tetramer (50 nM per paragraph 133). (Flow cytometry measures light scatter and fluorescence of single cells or particles in a stream.)
Assay [2] has the same target. In words: flow cytometry on Raji cells, competition with 100 nM Alexa Fluor 647 WT SIRPα tetramer.
The target of assay [3] is biotinylated CD47 IgSF domain (human CD47 residues 19-135 / residues 1-117, C15G) (human) (UniProt Q08722). In words: SPR (Biacore T100, 25 C), biotinylated CD47 captured on SA chip, SIRPα variant in solution, 1:1 Langmuir model. (In general: SPR reads the build-up and loss of mass on a sensor chip optically.)
Assay [4] deals with T1, mouse CD47 on mouse cells (CT26 colon cancer cells; mouse blood cells) (mouse, UniProt Q61735 19-303).
T1 construct: whole, on cells
T1 sequence (looked up): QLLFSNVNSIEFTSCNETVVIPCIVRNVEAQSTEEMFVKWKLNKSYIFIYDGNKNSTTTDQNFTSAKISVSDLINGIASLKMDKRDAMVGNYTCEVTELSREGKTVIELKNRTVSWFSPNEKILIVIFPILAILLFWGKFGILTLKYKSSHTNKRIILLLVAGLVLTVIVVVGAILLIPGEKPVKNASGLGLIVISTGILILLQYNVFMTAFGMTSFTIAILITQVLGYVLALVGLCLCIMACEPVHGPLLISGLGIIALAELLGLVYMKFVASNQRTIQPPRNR
In words: flow cytometry on mouse CT26 colon cancer cells.

Assay [5] has as its target T2, human CD47 on the surface of cancer cells (Raji, Jurkat, DLD-1) (human, UniProt Q08722 19-323).
T2 construct: whole, on cells; also called cell-surface CD47; CD47 on cancer cells
Put plainly: flow cytometry on Jurkat cells, biotinylated SIRPα variant detected with Alexa Fluor 647 streptavidin. Here is the method: (§1) GFP+ Jurkat cells were washed in PBS then incubated with titrating concentrations of biotinylated SIRPα variants for 30 minutes on ice. Wild-type SIRPα tetramer was pre-formed by incubating a 4:1 molar ratio of biotinylated wild-type SIRPα with streptavidin for 15 minutes on ice. […] Cells were washed twice then analyzed for SIRPα variant binding by flow cytometry using an Accuri C6 flow cytometer. To assess blocking of wild-type SIRPα to cD47, 50 nM wild-type SIRPα tetramer was incubated with titrating concentrations of CD47 blocking agents for 30 minutes on ice. Anti-CD47 clone B6H12 (eBioscience) was used as a positive control for blocking. Data were analyzed using GraphPad Prism 5. Maximal SIRPα variant binding represents the percentage of the maximal mean fluorescence intensity measured for each variant.

The target of assay [6] is T2, human CD47 on the surface of cancer …. Put plainly: flow cytometry on DLD-1 cells, detection with goat anti-human IgG. Here is the method:
Varying concentrations of biotinylated SIRPα monomers, SIRPα-hlgG4 fusion proteins, or anti-CD47 antibodies were incubated with cancer cells as indicated. […] Binding of SIRPα-hlgG4 fusion proteins or anti-CD47 antibodies was detected with goat anti-human IgG antibody (Invitrogen) and was analyzed on an LSRFortessa with high-throughput sampler (BD Biosciences). Data represent the mean fluorescence intensity normalized to maximal binding for each class of reagents, and points were fit to sigmoidal dose-response curves using Prism 5 (Graphpad).

The target is the same in assay [7]. Put plainly: flow cytometry on Jurkat cells, competition with Alexa Fluor 647 wild-type SIRPα tetramer (50 nM per paragraph 133). Here is the method:
as §1

Assay [8] deals with T3, biotinylated CD47 IgSF domain (human CD47 residues 19-135 / residues 1-117, C15G) (human, UniProt Q08722 19-135, biotinylated with BirA ligase at the C-terminal biotin acceptor peptide tag).
T3 construct: range 19-135; Captured on a Biacore SA chip for SPR; C15G is counted on the mature domain (1-117), not on the precursor; also called immobilized CD47
In words: SPR (Biacore T100, 25 C), biotinylated CD47 captured on SA chip, SIRPα variant in solution, 1:1 Langmuir model. Here is the method: SPR experiments were conducted on a Biacore T100 instrument at 25° C. Experiments used a Biacore SA sensor chip (GE Healthcare) to capture biotinylated CD47 at a surface density of approximately 150 RU. An unrelated biotinylated protein was immobilized as a reference surface for the SA sensor chip with matching RU to the experimental surface. Serial dilutions of unbiotinylated SIRPα variants in the running buffer [1×HBS-P (GE Healthcare)] were flowed over the chip at a rate of 50 μL/min. CD47 was regenerated using three 30 second injections of 2M MgCl₂. Data was analyzed using the Biacore T100 evaluation software version 2.0 with a 1:1 Langmuir binding model.
Experiments were conducted with a Biacore T100 at 25° C. Protein concentrations were quantified by 280 nm absorbance with a Nanodrop2000 spectrometer (Thermo Scientific). A Biacore SA sensor chip (GE Healthcare) was used to capture biotinylated CD47 (Rₘₐₓ ˜150 RU). An unrelated biotinylated protein was immobilized with an RU value matching that of the […] to control for nonspecific binding. Measurements were made with serial dilutions of the SIRPα variants in HBS-P+ buffer (GE Healthcare). The CD47 surface was regenerated by three 60 second injections of 2 M MgCl₂. All data were analyzed with the Biacore T100 evaluation software version 2.0 with a 1:1 Langmuir binding model.

Assay [9] concerns the target T2, human CD47 on the surface of cancer …. Put plainly: flow cytometry on Raji cells, competition with 100 nM Alexa Fluor 647 WT SIRPα tetramer.
The target in assay [10] is T4, mouse CD47 displayed on the surface of yeast (mouse, UniProt Q61735 19-133, limits assumed).
T4 sequence (looked up): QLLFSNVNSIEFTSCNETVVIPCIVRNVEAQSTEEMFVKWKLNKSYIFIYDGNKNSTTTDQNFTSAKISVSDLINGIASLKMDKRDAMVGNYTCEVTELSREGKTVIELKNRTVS
In words: flow cytometry on yeast displaying mouse CD47.

Consider Anti-CD47 (B6H12) (antibody), for which the IC50 (read off the curve) in [1] came to 80 nM.

Regarding “Fab fragments of anti-CD47 antibody clone B6H12”, the IC50 (read off the curve) in assay [2] worked out at 100 nM. “WT allele 2 (from UniProt P78324) (receptor)”: the Kd in [3] was determined as 452 nM.

B1: biotinylated FD6 monomer (designed binder)
chain: EEEVQIIQPDKSVSVAAGESAILHCTITSLFPVGPIQWFRGAGPARVLIYNQRQGPFPRVTTISETTRRENMDFSISISNITPADAGTYYCIKFRKGSPDTEFKSGAGTELSVRAKPSGLNDIFEAQKIEWHEHHHHHHHH
modifications: biotinylated at the C-terminal biotin acceptor peptide tag
For B1, in [4], the “EC50 (read off the curve)” value is about 300 nM.

B2: biotinylated high-affinity SIRPα variant FA4 monomer (designed binder)
chain: EEELQIIQPDKSVSVAAGESAILHCTITSLTPVGPIQWFRGAGPARVLIYNQRQGPFPRVTTVSEGTRRENMDFSISISNITPADAGTYYCIKFRKGSPDTEVKSGAGTELSVRAKPSGLNDIFEAQKIEWHEHHHHHHHH
modifications: biotinylated at the C-terminal biotin acceptor peptide tag
On to B2, for which the binding result in assay [5] is reported as “binds”.

B3: FD6-hIgG4 (FD6 d1 domain fused to hinge, CH2 and CH3 of human IgG4) (Fc fusion)
chain: EEEVQIIQPDKSVSVAAGESAILHCTITSLFPVGPIQWFRGAGPARVLIYNQRQGPFPRVTTISETTRRENMDFSISISNITPADAGTYYCIKFRKGSPDTEFKSGAGTELSVRAKPSAAAPPCPPCPAPEFLGGPSVFLFPPKPKDTLMISRTPEVTCVVVDVSQEDPEVQFNWYVDGVEVHNAKTKPREEQFNSTYRVVSVLTVLHQDWLNGKEYKCKVSNKGLPSSIEKTISKAKGQPREPQVYTLPPSQEEMTKNQVSLTCLVKGFYPSDIAVEWESNGQPENNYKTTPPVLDSDGSFFLYSRLTVDKSRWQEGNVFSCSVMHEALHNHYTQKSLSLSPGK
notes: also called FD6-hlgG4; FD-hlgG4
In the case of B3, the “EC50 (read off the curve)” value in assay [6] was about 5 nM. In [7], the “IC50 (read off the curve)” value is about 2 nM.

B4: first generation SIRPα mutant 1A5 monomer (designed binder)
chain: EEEVQVIQPDKSVSVAAGESAILHCTLTSLIPVGPIQWFRGAGPARVLIYNQRQGHFPRVTTVSEGTRRENMDFSISISNITPADAGTYYCIKFRKGSPDTEFKSGAGTELSVRAKPSHHHHHHHH
Turning to B4, the “IC50 (read off the curve)” value in assay [7] was about 80 nM. The molecule further registered a dissociation constant (Kd) in assay [8] of 3.6 nM.

B5: high-affinity SIRPα variant FD6 monomer (d1 domain) (designed binder)
chain: EEEVQIIQPDKSVSVAAGESAILHCTITSLFPVGPIQWFRGAGPARVLIYNQRQGPFPRVTTISETTRRENMDFSISISNITPADAGTYYCIKFRKGSPDTEFKSGAGTELSVRAKPSHHHHHHHH
notes: Second generation variant of human SIRPα allele 1 d1
B5: the “IC50 (read off the curve)” value in assay [7] is about 3 nM; in assay [9], about 2 nM. The same molecule had a dissociation constant Kd in [8] of 0.0413 nM.

B6: high-affinity SIRPα variant CV1 monomer (consensus variant 1, d1 domain) (designed binder)
chain: EEELQIIQPDKSVLVAAGETATLRCTITSLFPVGPIQWFRGAGPGRVLIYNQRQGPFPRVTTVSDTTKRNNMDFSIRIGNITPADAGTYYCIKFRKGSPDDVEFKSGAGTELSVRAKPSHHHHHHHH
notes: Nine consensus substitutions grafted onto wild-type SIRPα allele 2
In the case of B6, the “IC50 (read off the curve)” value in assay [9] was about 0.8 nM. Moreover, in assay [10], the “EC50 (read off the curve)” value was about 20 nM. Further, the Kd in assay [8] is 0.0111 nM.

B7: CV1-hIgG4 (CV1 d1 domain fused to hinge, CH2 and CH3 of human IgG4 S228P) (Fc fusion)
chain: EEELQIIQPDKSVLVAAGETATLRCTITSLFPVGPIQWFRGAGPGRVLIYNQRQGPFPRVTTVSDTTKRNNMDFSIRIGNITPADAGTYYCIKFRKGSPDDVEFKSGAGTELSVRAKPSAAAPPCPPCPAPEFLGGPSVFLFPPKPKDTLMISRTPEVTCVVVDVSQEDPEVQFNWYVDGVEVHNAKTKPREEQFNSTYRVVSVLTVLHQDWLNGKEYKCKVSNKGLPSSIEKTISKAKGQPREPQVYTLPPSQEEMTKNQVSLTCLVKGFYPSDIAVEWESNGQPENNYKTTPPVLDSDGSFFLYSRLTVDKSRWQEGNVFSCSVMHEALHNHYTQKSLSLSPGK
notes: also called CV1-hlgG4
With B7, the “EC50 (read off the curve)” value in assay [6] was about 4 nM.

B8: FA4 (designed binder)
SIRPα d1 domain variant: EEELQIIQPDKSVSVAAGESAILHCTITSLTPVGPIQWFRGAGPARVLIYNQRQGPFPRVTTVSEGTRRENMDFSISISNITPADAGTYYCIKFRKGSPDTEVKSGAGTELSVRAKPS
notes: also called FA4 mutant d1 domain; FA4 monomer (unbiotinylated, SPR analyte)
Take B8: in assay [8], binding was put at a Kd of 0.034 nM.

B9: 2A10 (designed binder)
SIRPα d1 domain variant: EEELQIIQPDKSVSVAAGESAILHCTITSLSPVGPIQWFRGAGPARVLIYNQRQGPFPRVTTVSEGTKRENMDFSISISNITPADAGTYYCIKLRKGSPDTEFKSGAGTELSVRAKPS
notes: also called 2A10 mutant d1 domain
Regarding B9, the affinity in assay [8], expressed as Kd, was 0.5 nM.

B10: FB3 (designed binder)
SIRPα d1 domain variant: EEELQIIQPDKSVSVAAGESAILHCTITSLFPVGPIQWFRGAGPARLLIYNQRQGPFPRVTTVSETTKRENMDFSISISNITPADAGTYYCVKFRKGSPDTEFKSGAGTELSVRAKPS
notes: also called FB3 mutant d1 domain
Molecule B10 showed a Kd in assay [8] of 0.0699 nM.

B11: 2F5 (designed binder)
SIRPα d1 domain variant: EEEVQLIQPDKSVSVAAGESAILHCTVTSLFPVGPIQWFRGAGPARVLIYNQREGPFPRVTTVSEGTKRENMDFSISISNITPADAGTYYCIKFRKGSPDTEVKSGAGTELSVRAKPS
notes: also called 2F5 mutant d1 domain
As to B11, in assay [8], the Kd was 0.276 nM.

B12: 2A2 (designed binder)
SIRPα d1 domain variant: EEEVQIIQPDKSVSVAAGESIILHCTVTSLFPVGPIQWFRGAGPARVLIYNQREGRFPRVTTVSEGTRRENMDFSISISNITPADAGTYYCIKLRKGSPDTEFKSGAGTELSVRAKPS
notes: also called 2A2 mutant d1 domain
In the case of B12, the Kd in assay [8] was determined as 0.402 nM.

B13: 2D3 (designed binder)
SIRPα d1 domain variant: EEEVQIIQPDKSVSVAAGESVILHCTITSLTPVGPIQWFRGAGPARLLIYNQREGPFPRVTTVSETTRRENMDFSISISNITPADAGTYYCVKLRKGSPDTEFKSGAGTELSVRAKPS
notes: also called 2D3 mutant d1 domain
In assay [8], B13 displayed a Kd of 0.847 nM.

B14: 1D4 (designed binder)
SIRPα d1 domain variant: EEELQVIQPDKSVSVAAGESAILHCTITSLIPVGPIQWFRGAGPARELIYNQREGHFPRVTTVSETTRRENMDFSISISNITPADAGTYYCVKFRKGSPDTEVKSGAGTELSVRAKPS
notes: First generation variant, unbiotinylated monomer in SPR; also called 1D4 mutant d1 domain
For B14, the Kd in [8] came to 11.6 nM.

B15: 2B5 (designed binder)
SIRPα d1 domain variant: EEEIQVIQPDKSVSVAAGESVIIHCTVTSLFPVGPIQWFRGAGPARVLIYNQRQGRFPRVTTVSEGTKRENMDFSISISNITPADAGTYYCVKVRKGSPDTEVKSGAGTELSVRAKPS
notes: also called 2B5 mutant d1 domain
Take B15: binding in assay [8] was put at a Kd of 0.423 nM. Against the preceding molecule, the Kd is about 27-fold lower.

Source of the values: US20180195054A1 (Stanford University, published 2018).
